9 molecules from patent US20250205362A1, “LIPID NANOPARTICLES” (NATIONAL UNIVERSITY CORPORATION HOKKAIDO UNIVERSITY, priority 2022, published 2025) can be followed below.

Residue numbers refer to the chain shown, from its start.

The data set concerns TTR gene. In words: Measurement of TTR-KO activity (serum TTR protein, ELISA). It is filed as in vivo, mouse. To be noted: for KO (%) 1st test / KO (%) 2nd test: TTR-KO activity in mice, TTR-RNP-ssODN-loaded LNP CL4H6/DSPC/cholesterol/PEG-DMG 50/10/40/3.5 mol%, sgTTR-G211 (TTR_3) or sgTTR-G269 (TTR_4). Here is the method:
Lipid nanoparticles encapsulating Cas9/sgTTR-RNP (Cas9/sgTTR-RNP-loaded lipid nanoparticles) were intravenously injected to BALB/c mice (female, 4 weeks old) at the indicated doses. One week after intravenous injection, the mice were euthanized, blood was collected, and serum was isolated by centrifugation. The TTR protein concentration in the serum was determined using a commercially available ELISA kit (Prealbumin ELISA Kit (mouse), Aviva Systems Biology) according to the manufacturer's protocol. The serum TTR protein concentration of untreated mice was taken as 100%, and the relative value (%) of the serum TTR protein concentration of mice administered with each lipid nanoparticle was taken as the knockout activity (TTR-KO activity) of the lipid nanoparticle.
(ELISA stands for enzyme-linked immunosorbent assay.)

For the molecule `CCCCCC(CCC)CCCCC(=O)OCCCCCCC(O)(CCCCCCOC(=O)CCCCC(CCC)CCCCC)CCCCN(CCC)CCC` (centres unmarked) [CL4F11-e-3, 7-(4-(dipropylamino)butyl)-7-hydroxytridecane-1,13-diylbis(6-propylundecanoate)], the knockout (FIG. 5, TTR-RNP-ssODN-loaded LNP, mouse serum 7 days after administration) is on record as at least 90%.
For the molecule `CCCCC(CC)CCCCCC(=O)OCCCCCCC(O)(CCCCCCOC(=O)CCCCCC(CC)CCCC)CCCCN(CCC)CCC` (centres unmarked) [CL4F11-ζ-2, 7-(4-(dipropylamino)butyl)-7-hydroxytridecane-1,13-diylbis(7-ethylundecanoate)], where the note is “FIG. 15, 2.0 mg RNP/kg body weight, single administration, 7 days”, the “suppression of TTR gene expression” value was determined as 98%.

B1: ssODN-TTR_3-100%: ssODN pairing with sgTTR-G211, 100% matched; SEQ ID NO 3 (nucleic acid)
DNA: AAAAAAAAAAAAAAAAAAAAAAAAAAAAAAAAAAAAAAAAAAAAAAAAAAAAAAAATGCTGTAGACGTGGCTGTAAAAAAAAAAAAAAAAAAAAAAAAAAAAAAAAAAAAAAAAAAAAAAAAAAAAAAAAAA
Turning to B1, the “KO (%) 1st test” value was 20.0% and the “KO (%) 2nd test” value is 28.6%.

B2: ssODN-TTR_4-50%: ssODN pairing with sgTTR-G269, 50% matched; SEQ ID NO 12 (nucleic acid)
DNA: B1 DNA
Regarding B2, the “KO (%) 1st test” value stood at 15.4% and the “KO (%) 2nd test” value is 33.8%.

B3: ssODN-TTR_4-40%: ssODN pairing with sgTTR-G269, 40% matched; SEQ ID NO 13 (nucleic acid)
DNA: AAAAAAAAAAAAAAAAAAAAAAAAAAAAAAAAAAAAAAAAAAAAAAAAAAAAAAAAAAAAAATGTAGGAGATAAAAAAAAAAAAAAAAAAAAAAAAAAAAAAAAAAAAAAAAAAAAAAAAAAAAAAAAAAAA
With B3, the “KO (%) 1st test” value was 19.9% and the “KO (%) 2nd test” value was determined as 29.6%. Also, the “TTR-KO activity (ranking among ssODNs)” value (Table 10, CL4H6 LNP, per sgRNA) was “highest TTR-KO activity”.

B4: ssODN-TTR_4-30%: ssODN pairing with sgTTR-G269, 30% matched; SEQ ID NO 14 (nucleic acid)
DNA: B3 DNA with T63A, G70A
For the molecule B4, the “KO (%) 1st test” value came to 16.4% and the “KO (%) 2nd test” value was 14.4%.

B5: ssODN-TTR_4-80%: ssODN pairing with sgTTR-G269, 80% matched; SEQ ID NO 10 (nucleic acid)
DNA: B3 DNA with A59G, A60T, A61G, A62C, A71T, T72A, A73T, A74G
Regarding B5, the “KO (%) 2nd test” value turned out to be 21.0%.

B6: ssODN-TTR_3-30%: ssODN pairing with sgTTR-G211, 30% matched; SEQ ID NO 8 (nucleic acid)
DNA: B3 DNA with T65A, A66C, G68T, A69G, G70A, T72A, A75T, A76T
For the molecule B6, the “KO (%) 1st test” value worked out at 17.4% and the “KO (%) 2nd test” value was determined as 31.6%. In addition, the “serum TTR activity / gene knockout activity” value (FIG. 23, CL4H6 LNP prepared at 4° C., 2.0 mg RNP/kg, 7 days) is “low serum TTR activity, exhibiting sufficient gene knockout activity”.

B7: ssODN-TTR_4-60%: ssODN pairing with sgTTR-G269, 60% matched; SEQ ID NO 11 (nucleic acid)
DNA: B3 DNA with A61G, A62C, A71T, T72A
On to B7, for which the “KO (%) 1st test” value is on record as −0.9% and the “KO (%) 2nd test” value was 30.7%.
